# Test results from patent US10189877.
# Target: DSV^4 VLPs (Dengue virus serotypes 1-4; Hepatitis B virus; Hepatitis B virus)
# Experiment: sandwich ELISA: mAb coated, DSV^4 VLPs added, detected with peroxidase labelled anti-HBsAg
row,Substance,ELISA OD [OD]
1,4G2 (antibody),0.05
2,3H5 (antibody),0.77
